Test results as given in paper PMC9765439, “Systems-Wide Dissection of Organic Acid Assimilation in Pseudomonas aeruginosa Reveals a Novel Path To Underground Metabolism” (mBio, 2022).

What was measured:
[1] = target: the molecule itself; assay: crystal structure; PrpC apo and oxaloacetate-bound (2.5 mM oxaloacetate) crystals; sitting drop, 100 to 200 mM Bis-Tris pH 5.5, 20 to 30% PEG 3350, 0.1% D-xylose, 19°C
[2] = target: the molecule itself; assay: crystal structure; GltA apo, 20 to 25 mg/mL, sitting drop vapor diffusion, 19°C

B1: 2-methylcitrate synthase PrpC from Pseudomonas aeruginosa (enzyme)
chain: MAEAKVLSGAGLRGQVAGQTALSTVGQEGAGLTYRGYDVRDLAAAAIFEEVAYLLLYGELPNKQQLDAYLKKLQGQRDLPQALKEVLERIPKDAHPMDVMRTGASVLGTLEPELSFDQQRDVADRLLAAFPAIMTYWYRFTHEGQRIDCNSDEPTIGGHFLALLHGKKPSELHVKVMNVSLILYAEHEFNASTFTARVCASTLSDLYSCVTGAIGSLRGPLHGGANEAAMELIERFSSPQEATAELLKMLERKDKIMGFGHAIYKDSDPRNEVIKGWSKQLADEVGDKVLFAVSEAIDKTMWEQKKLFPNADFYHASAYHFMGIPTKLFTPIFVCSRTSGWTAHVFEQRANNRIIRPSAEYTGVEQRAFVPLEQR
notes: 2-methylcitrate synthase PrpC of Pseudomonas aeruginosa; PCR-amplified ORF of prpC cloned into pET-19m; printed length 376 amino acids, theoretical monomer mass 41.7 kDa; also called PrpCPa; 2-MCS; source: E. coli, purified (Ni-NTA, His6 tag cleaved with TEV protease); not shown: His6, N-terminal, cleaved
**Q.** With B1 as the protein, how does the “stoichiometry N” value [1] read?
**A.** 2

B2: citrate synthase GltA from Pseudomonas aeruginosa (enzyme, UniProt P14165 1-428, looked up)
chain: MADKKAQLIIEGSAPVELPVLSGTMGPDVVDVRGLTATGHFTFDPGFMSTASCESKITYIDGDKGVLLHRGYPIEQLAEKSDYLETCYLLLNGELPTAAQKEQFVGTIKNHTMVHEQLKTFFNGFRRDAHPMAVMCGVIGALSAFYHDSLDINNPKHREVSAHRLIAKMPTIAAMVYKYSKGEPMMYPRNDLNYAENFLHMMFNTPCETKPISPVLAKAMDRIFILHADHEQNASTSTVRLAGSSGANPFACIASGIAALWGPAHGGANEAVLRMLDEIGDVSNIDKFVEKAKDKNDPFKLMGFGHRVYKNFDPRAKVMKQTCDEVLQELGINDPQLELAMKLEEIARHDPYFVERNLYPNVDFYSGIILKAIGIPTSMFTVIFALARTVGWISHWQEMLSGPYKIGRPRQLYTGHTQRDFTALKDRG
notes: citrate synthase GltA of Pseudomonas aeruginosa; PCR-amplified ORF of gltA cloned into pET-19m; printed length 429 amino acids; The hexamer is that of the crystal's asymmetric unit; also called GltAPa; citrate (CIT) synthase; source: E. coli, purified (Ni-NTA, His6 tag cleaved with TEV protease); not shown: His6, N-terminal, cleaved
**Q.** B2 was tested. Which “stoichiometry N” value [2] did it give?
**A.** 6
